Patent US7022815 (GENERAL HOSPITAL, dated 2006)
Values joined by “and” are separate entries in the source; they are usually repeats but may differ in a detail not shown here. Equal entries are not always repeated. Non-standard residues stand in square brackets, D forms with d. No end group written: not given here. Nle = CCCC[C@H](N)C(=O)O

T1: human PTH-1 receptor (human, UniProt Q03431 27-593)
T1 sequence (looked up): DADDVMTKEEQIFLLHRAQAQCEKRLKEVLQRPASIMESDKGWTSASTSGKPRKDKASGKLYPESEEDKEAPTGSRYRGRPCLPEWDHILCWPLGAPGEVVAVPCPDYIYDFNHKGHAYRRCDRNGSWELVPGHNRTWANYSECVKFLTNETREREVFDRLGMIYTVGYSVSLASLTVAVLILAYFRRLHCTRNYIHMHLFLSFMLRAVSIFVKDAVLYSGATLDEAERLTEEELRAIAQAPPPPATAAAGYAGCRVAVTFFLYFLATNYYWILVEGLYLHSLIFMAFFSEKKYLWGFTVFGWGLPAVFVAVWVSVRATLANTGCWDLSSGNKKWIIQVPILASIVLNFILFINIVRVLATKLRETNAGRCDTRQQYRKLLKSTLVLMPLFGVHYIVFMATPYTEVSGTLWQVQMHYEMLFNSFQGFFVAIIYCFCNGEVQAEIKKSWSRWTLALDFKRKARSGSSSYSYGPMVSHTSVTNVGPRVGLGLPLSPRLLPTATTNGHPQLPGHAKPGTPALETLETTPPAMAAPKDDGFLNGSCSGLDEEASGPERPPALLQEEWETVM

T2: rat PTH-1 receptor (rat, UniProt P25961 27-591)
T2 sequence (looked up): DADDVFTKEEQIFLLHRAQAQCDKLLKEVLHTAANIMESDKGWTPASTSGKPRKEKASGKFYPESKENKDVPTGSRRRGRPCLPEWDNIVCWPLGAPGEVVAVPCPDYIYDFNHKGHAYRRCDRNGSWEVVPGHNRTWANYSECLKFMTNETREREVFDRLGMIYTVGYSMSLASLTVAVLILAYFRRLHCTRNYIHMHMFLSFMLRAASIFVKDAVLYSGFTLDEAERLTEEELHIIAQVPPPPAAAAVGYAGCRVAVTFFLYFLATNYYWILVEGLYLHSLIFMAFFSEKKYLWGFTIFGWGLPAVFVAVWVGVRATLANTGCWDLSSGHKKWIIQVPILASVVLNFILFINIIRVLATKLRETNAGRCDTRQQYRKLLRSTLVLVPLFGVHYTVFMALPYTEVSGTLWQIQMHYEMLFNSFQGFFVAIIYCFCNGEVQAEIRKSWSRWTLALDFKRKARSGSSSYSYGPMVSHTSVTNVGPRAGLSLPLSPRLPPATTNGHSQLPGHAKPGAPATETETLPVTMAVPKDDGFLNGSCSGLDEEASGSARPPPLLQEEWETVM

B1: [A3, A10, R11, A12]rPTH(1-12) (peptide)
peptide: AVAEIQLMHARA-NH2
B2: [A3, A10, R11]rPTH(1-11) (peptide)
peptide: AVAEIQLMHAR-NH2
B3: native rPTH(1-14) (peptide)
peptide: AVSEIQLMHNLGKH-NH2
B4: [Nle^8,21,Tyr^34]-rPTH(1-34)NH2 (peptide)
peptide: AVSEIQL[Nle]HNLGKHLASVER[Nle]QWLRKKLQDVHNY-NH2
B5: [A3, A10, R11, A12]rPTH(1-13) (peptide)
peptide: AVAEIQLMHARAK-NH2
B6: [A3, Q10, R11, A12]rPTH(1-14) (peptide)
peptide: AVAEIQLMHQRAKH-NH2
B7: [Tyr^34]human (h)PTH(1-34)NH2 (peptide)
peptide: SVSEIQLMHNLGKHLNSMERVEWLRKKLQDVHNY-NH2
B8: [A1, A3, A10, R11, A12, Y34]hPTH(1-34) (peptide)
peptide: AVAEIQLMHARAKHLNSMERVEWLRKKLQDVHNY-NH2
notes: also called peptide #7; #7
B9: [A3, A10, R11, A12]rPTH(1-14) (peptide)
peptide: AVAEIQLMHARAKH-NH2
B10: [A3, A10, R11, A12, W14]rPTH(1-14) (peptide)
peptide: AVAEIQLMHARAKW-NH2

Experiments:
human PTH-1 receptor [1] = biological target: T1, human PTH-1 receptor; experiment: cell-based or functional assay
human PTH-2 receptor = human PTH-2 receptor (human, UniProt P49190 25-550); experiment: cell-based or functional assay
human PTH-1 receptor [2] = biological target: T1, human PTH-1 receptor; experiment: cell-based or functional assay; remark: listed apart in the source
human PTH-1 receptor [3] = biological target: T1, human PTH-1 receptor; experiment: cell-based or functional assay; remark: listed apart in the source
rat PTH-1 receptor = biological target: T2, rat PTH-1 receptor; experiment: cell-based or functional assay
[4] = biological target: truncated human PTH-1 receptor hDelNt (human), Q03431; experiment: cell-based or functional assay
human PTH-1 receptor [5] = biological target: T1, human PTH-1 receptor; experiment: cell-based or functional assay; remark: listed apart in the source
human PTH-1 receptor [6] = biological target: T1, human PTH-1 receptor; experiment: competition binding on HKRK-B7 cells, 125I-rPTH(1-34) tracer displaced by varying doses of unlabeled peptide
Method: Binding reactions were performed with stably transfected HKRK-B7 cells in 24-well plates. […] Incubations (final volume=300 µL) were at 15° C. for 4 h. Cells were then placed on ice, the binding medium was removed, and the monolayer was rinsed three times with 0.5 mL of cold binding buffer. The cells were subsequently lysed with 0.5 mL 5N NaOH and counted for radioactivity. The non-specific binding for each experiment was determined by competition with a 1 µM dose of unlabeled rPTH(1–34). The maximum specific binding (B_0) was the total radioactivity bound in the absence of unlabeled PTH ligand, corrected for nonspecific binding. Binding $IC50$ values were determined using nonlinear regression (see below).
To determine if these substitutions could enhance the activity of PTH(1–34), the substitutions of Ser3→Ala, Asn10→Ala, Leu11→Arg and Gly12→Ala were introduced into the analog [Ala1,Tyr34]hPTH(1–34) to yield peptide #7.

human PTH-2 receptor, sequence (P49190 25-550): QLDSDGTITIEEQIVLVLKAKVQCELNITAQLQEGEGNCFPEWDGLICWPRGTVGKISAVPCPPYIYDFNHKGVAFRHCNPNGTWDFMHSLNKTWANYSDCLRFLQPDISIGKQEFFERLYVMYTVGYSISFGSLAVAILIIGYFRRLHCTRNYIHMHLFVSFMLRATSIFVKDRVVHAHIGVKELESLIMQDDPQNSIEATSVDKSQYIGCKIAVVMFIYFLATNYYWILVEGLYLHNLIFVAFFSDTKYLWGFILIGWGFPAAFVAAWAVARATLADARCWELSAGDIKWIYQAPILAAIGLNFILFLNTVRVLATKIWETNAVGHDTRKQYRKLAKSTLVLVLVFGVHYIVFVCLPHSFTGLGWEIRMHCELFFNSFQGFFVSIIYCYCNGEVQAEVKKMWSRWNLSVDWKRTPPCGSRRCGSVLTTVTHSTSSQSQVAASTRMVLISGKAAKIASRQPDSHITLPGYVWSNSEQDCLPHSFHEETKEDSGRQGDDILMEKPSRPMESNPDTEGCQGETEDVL

Binder	cAMP EC50, HKRK-B7 cells (human PTH-1 receptor [1])	cAMP Emax, HKRK-B7 cells (human PTH-1 receptor [1]) [picomole/well]	cAMP EC50, LLC-P2R-22 cells (human PTH-2 receptor)	cAMP Emax, LLC-P2R-22 cells (human PTH-2 receptor) [picomole/well]	cAMP EC50, COS-7 cells with WT hPTH-1 receptor (human PTH-1 receptor [2])	cAMP Emax, COS-7 cells with WT hPTH-1 receptor (human PTH-1 receptor [2]) [picomole/well]	cAMP EC50, SAOS-2 cells (human PTH-1 receptor [3])	cAMP Emax, SAOS-2 cells (human PTH-1 receptor [3]) [picomole/well]	cAMP EC50, ROS 17/2.8 cells (rat PTH-1 receptor)	cAMP Emax, ROS 17/2.8 cells (rat PTH-1 receptor) [picomole/well]	cAMP Emax, COS-7 cells with hDeINt (picomole/well) [4]	cAMP potency against controls, HKRK-B7 cells (human PTH-1 receptor [5]) [fold]	fold improvement in binding affinity, as compared to rPTH(1-34) (human PTH-1 receptor [6]) [fold]	cAMP potency against native PTH(1-14) [4] [fold]	cAMP potency against native PTH(1-14) (human PTH-1 receptor [5]) [fold]
B1	-5 Log M and 10.2 µM	238	-3.5 Log M and 342 µM	501											
B2	-4.8 Log M and 17.1 µM	248			-4.6 Log M and 29.1 µM	238	94.7 µM and -4.12 Log M	235	133 µM and -3.9 Log M	377	243				
B3	-3.9 Log M and 133 µM	299			-3.8 Log M and 152 µM	221			-3.4 Log M and 449 µM	376	222				
B4	-8.6 Log M and 0.0033 µM	293	-8.4 Log M and 0.0044 µM	744	-9.2 Log M and 0.0007 µM	226	-9.75 Log M and 0.00018 µM	272	-9.5 Log M and 0.0003 µM	364	243				
B5	-5.6 Log M and 2.4 µM	239	-4 Log M and 106 µM	501											
B6	-6.1 Log M and 0.8 µM	235													
B7	-8.4 Log M	270			-9.3 Log M	226		307	-9.6 Log M and 0.0003 µM	340	238				
B8	-8.8 Log M and 0.0016 µM	244	-7.7 Log M and 0.0192 µM	677	-3.5 Log M and 313 µM	222	0.00011 µM and -9.95 Log M	272	-9.6 Log M and 0.0002 µM	395	251	~2	~2		
B9	-6.1 Log M and 0.83 µM	264	-3.9 Log M and 126 µM	292	-6 Log M and 4.66 µM	243	12.7 µM and -4.9 Log M	331	-5.2 Log M and 7.3 µM	395	250			100	
B10	-6.3 Log M and 0.6 µM	262							3.4 µM	382					220
